The target in series [1] is T1, HIS-PI3K/p85-SH3 (Homo sapiens, UniProt O00459).
T1 construct: the Src Homology 3 (SH3) domain of the regulatory subunit of PI3K were produced; made in house; host or cells: bacteria (IPTG induction)
T1 sequence (O00459 4-80 limits assumed): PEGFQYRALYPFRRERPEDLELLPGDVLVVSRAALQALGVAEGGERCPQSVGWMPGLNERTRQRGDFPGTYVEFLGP
T1 sequence (Q5VST9 5895-6004 partner limits assumed): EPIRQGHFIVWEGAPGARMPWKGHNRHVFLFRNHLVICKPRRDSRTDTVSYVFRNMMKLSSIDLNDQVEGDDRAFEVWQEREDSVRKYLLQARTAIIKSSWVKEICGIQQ
The series can be described thus: Surface plasmon resonance (Biacore 3000) of obscurin-PH binding to PI3K/p85-SH3. The settings on record: GST-obscurin-PH immobilized ligand, HIS-PI3K/p85-SH3 analyte 8-250 nM; 1:1 Langmuir model, at equilibrium; read-out: dissociation constant, KD. The source says:
The Pleckstrin Homology (PH) domain of obscurin and the Src Homology 3 (SH3) domain of the regulatory subunit of PI3K were produced as glutathione-S-transferase (GST, PGEX vector; GE Healthcare Life Sciences) and His (pET-30a(+) vector; EMD Millipore, Billerica, Mass.) tagged proteins, respectively, according to the manufacturers' instructions and established methods (19). Human cDNA from normal breast tissue was purchased from a commercial source (Origene, Atlanta, Ga.), and the following sets of primers were used for amplification of the obscurin-PH and the PI3K/p85-SH3 domains: Sense-Obsc-PH: 5′ CCCATCCGCCAGGGC 3′ (SEQ ID NO 1) and Antisense-Obsc-PH: 5′ AGGCAGGGCCAGACG 3′ (NM_001098623.2) (SEQ ID NO 2), and Sense-PI3K/p85-SH3: 5′ CCTGAGGGCTTCCAG 3′ (SEQ ID NO 3) and Antisense-PI3K/p85-SH3: 5′ TCAGGGCCCCAGGAA 3′ (NM_005027) (SEQ ID NO 4). […]
Surface plasmon resonance was performed using a BiaCore 3000 instrument as described (6, 19, 21). […] For each analyte concentration, association was measured for 180 sec and dissociation was measured over another 180 sec. Data were evaluated with the 1:1 Langmuir model and the Heterogeneous Ligand model (BIAevaluation Software 3.1, Biacore). The association (ka, M^−1 s^−1) and dissociation (kd, s^−1) rate constants as well as the association (KA, M^−1) and dissociation (KD, M) equilibrium constants were determined.
A general note: Surface plasmon resonance follows binding to a sensor surface in real time, without labels.

Series [2] addresses T1, HIS-PI3K/p85-SH3. Put plainly: GST-pull down assay. The settings on record: 3 mg/ml HIS-PI3K/p85-SH3; control GST-protein did not retain. It counts as binding. The source says: The Pleckstrin Homology (PH) domain of obscurin and the Src Homology 3 (SH3) domain of the regulatory subunit of PI3K were produced as glutathione-S-transferase (GST, PGEX vector; GE Healthcare Life Sciences) and His (pET-30a(+) vector; EMD Millipore, Billerica, Mass.) tagged proteins, respectively, according to the manufacturers' instructions and established methods (19). Human cDNA from normal breast tissue was purchased from a commercial source (Origene, Atlanta, Ga.), and the following sets of primers were used for amplification of the obscurin-PH and the PI3K/p85-SH3 domains: Sense-Obsc-PH: 5′ CCCATCCGCCAGGGC 3′ (SEQ ID NO 1) and Antisense-Obsc-PH: 5′ AGGCAGGGCCAGACG 3′ (NM_001098623.2) (SEQ ID NO 2), and Sense-PI3K/p85-SH3: 5′ CCTGAGGGCTTCCAG 3′ (SEQ ID NO 3) and Antisense-PI3K/p85-SH3: 5′ TCAGGGCCCCAGGAA 3′ (NM_005027) (SEQ ID NO 4). GST- and His-tagged recombinant proteins were expressed by induction with 0.5 mM isopropyl […] (IPTG) for 3 h and purified by affinity chromatography on glutathione-Sepharose (Thermo Fisher Scientific) or Talon cobalt (Thermo Fisher Scientific) columns, respectively, following the manufacturers' instructions.
GST-pull down assays were performed (19, 20). […]

Consider 1 molecule from patent US20170363632A1, “Biomarker Kit for Metastatic Breast Cancer Prognosis and Uses Thereof” (University of Maryland, Baltimore, priority 2016, published 2017).

B1: GST-obscurin-PH: recombinant Pleckstrin Homology (PH) domain of obscurin fused to GST, bacterially expressed (~37 kDa) (protein)
chain: T1 sequence (Q5VST9 5895-6004 partner limits assumed)
modifications: left off: a dimerising Fc or GST
Turning to B1, the Kd in the series with HIS-PI3K/p85-SH3 [1] is roughly 50 nM. Also, in the series with HIS-PI3K/p85-SH3 [2], the “retention of HIS-PI3K/p85-SH3 in GST-pull down” value was “able to efficiently and specifically retain HIS-PI3K/p85-SH3”.

By Kd is commonly meant the free concentration of one partner at which half of the binding sites on the other are occupied at equilibrium, for simple one-to-one binding.
